Experimental findings from PMC6462090 are described below.

Assay [1] deals with USP9X catalytic domain C1727A (human) (UniProt Q93008).
The target of assay [2] is USP9X catalytic domain H1729A (human) (UniProt Q93008).

Ub-AMC (from UniProt P0CG48 1-76): the Km for hydrolysis of Ub-AMC, fold increase against WT in assay [1] amounted to 5 fold; in assay [2] it was 7 fold.
